Experimental data: PMC4222117

Target: Aβ extracted from AD brain (human (endogenous in AD brain))
Assay: immunoprecipitation and SDS-PAGE Western blot

stoichiometry N: 2
Substance: Aβ extracted from AD brain (peptide)
